Laboratory results reported in patent US20140170125A1, “USE OF CARDIOTROPHIN-1 FOR THE TREATMENT OF KIDNEY DISEASES” (DIGNA Biotech, S.L., priority 2011, published 2014).
Entries after “also recorded” stand apart in the source; their conditions may differ.

Assays:
[1] = system: cisplatin-induced kidney injury; assay: Acute kidney injury produced by cisplatin; format: in vivo, Wistar rats
Procedure: The urinary flow (mL/day) was evaluated measuring the graduated receptacles containing the 24-hour urine in the metabolic cages as indicated in the obtainment of urine.
The experiment was performed in 24 male Wistar rats of around 220 grams in weight.
The animals were divided in 4 experimental groups, comprising 6 rats per group. […] The experimental design was developed as described below:
Group I (Control, C, n=6 animals) animals treated with vehicle via i.v. during 7 days.
Group II (Cardiotrophin-1, CT-1, n=6 animals) animals administered a daily dose of cardiotrophin-1 of 100 μg/kg body weight via i.v. during 7 days.

[2] = system: experimental model of iodinated contrast nephropathy; assay: Contrast-induced nephropathy: Gastrografin in rats sensitized with subtoxic gentamicin
Procedure: The rats were placed in individual metabolic cages where they had free access to food and drink. After two days of acclimatization, the 24-hour urine was collected in graduated cylinders. The urine collected was centrifuged during 8 minutes at 2,500 rpm, to clean it from residues not thereof, the clean urine was collected and it was stored at −80° C. for its later analysis.
The blood samples were obtained in capillaries with heparin by a small cut at the end of the tail. Five capillaries were extracted per rat (200 μL), and the capillaries were centrifuged in a microcentrifuge at 11,000 rpm during three minutes. Once centrifuged, the capillaries were broken with the aid of a file, by the cells-plasma limit. The plasma was extracted and stored in eppendorf tubes at −80° C. for its later analysis.
To measure kidney function, the plasma concentrations of creatinine and creatinine clearance, which is a measurement of the glomerular filtration rate, were determined. The creatinine clearance (CrCl) was calculated from the formula CrCl=UF×CrU/CrP, where UF is the urinary flow (ml/min), CrU the creatinine concentration in urine (mg/ml) and CrP the creatinine concentration in plasma (mg/ml). The creatinine concentration in urine and in plasma were measured by a semiautomatic analyser (Reflotron, Roche).
The concentration of urea in plasma was measured by specific reactive strips of a commercial kit, using a semiautomatic analyser (Reflotron, Roche).
The concentration of proteins in urine (proteinuria) was measured by Bradford's colorimetric method (Anal Biochem. 1976; 72:248-54). The urinary excretion of proteins (UEprot) in 24 hours was calculated by the formula: UEprot=Cprot×FU24 h, where Cprot is the concentration of proteins in urine (mg/mL) and FU24 h the urinary flow of 24 hours (mL/day).
For its determination a commercial kit from Roche was used, following the manufacturer's specifications, and the results were analysed with the KC-Junior software.
In the Western Blot technique, 100 μg of protein of the total of the renal tissue homogenate or a volume of urine of each animal which corresponds to the excretion fraction were loaded in a polyacrylamide gel. After separation by electrophoresis, these proteins were transferred to a PVDF membrane (Inmobilon-P #IPVH00010, Madrid, Spain), and they were hybridized with antibodies against KIM-1 (R&D Systems) and NGAL (MBL).
An experimental model of iodinated contrast nephropathy was used, consisting of the intravenous administration of the iodinated contrast Gastrografin (Bayer C. N. 909622 EXO) to rats predisposed to suffering acute kidney failure.
The experiment was performed on 32 male Wistar rats of around 220 grams in weight. The environmental conditions of the animals were kept constant: temperature of around 20° C., humidity of approximately 60% and daily light period (photoperiod) of 12 hours.
Six experimental groups were considered in the design study:
Control group (C): rats administered saline solution (n=5).
Cardiotrophin group (CT-1): rats administered cardiotrophin i.v. (100 μg/Kg/day) the day before the administration of the contrast and in the four subsequent days (n=5).
Gastrografin group (Gg): rats administered a single dose of iodinated agent i.v. (10 mL/Kg; […]) (n=5).
The animals were housed in metabolic cages in order to collect the urine free of faeces. Likewise, a blood sample was obtained every day (0.150 ml) from the tail in heparized capillaries.
At the end of the experiments (four days after administration of the iodinated contrast) the rats were anaesthetized and, later, they were perfused with heparinized saline solution. The kidneys were obtained from these animals and part of the samples was introduced in formol to perform histological studies whilst another part was ultrafrozen for the tissue studies.
The studies performed were the following:
Plasma creatinine, Plasma urea, proteinuria, microalbuminuria
Creatinine clearance in metabolic cages

[3] = system: acute kidney injury produced by gentamicin; assay: Acute kidney injury produced by gentamicin
[4] = system: rats subjected to 60 minutes of left renal ischemia; assay: Acute kidney injury produced by renal ischemia/reperfusion (60 minutes of left renal ischemia); format: in vivo
[5] = agents without CT-1 protection or alone, vs control
[6] = group Gg+G+CT-1, CT-1 100 μg/Kg/day i.v.
[7] = 4 hours after reperfusion, elevation induced by IR

B1: CT-1: cytokine belonging to the interleukin 6 family; recombinant human CT-1 or rat cardiotrophin-1 administered i.v. (protein, UniProt Q16619 1-201, looked up)
Cardiotrophin-1: MSRREGSLEDPQTDSSVSLLPHLEAKIRQTHSLAHLLTKYAEQLLQEYVQLQGDPFGLPSFSPPRLPVAGLSAPAPSHAGLPVHERLRLDAAALAALPPLLDAVCRRQAELNPRAPRLLRRLEDAARQARALGAAVEALLAALGAANRGPRAEPPAATASAASATGVFPAKVLGLRVCGLYREWLSRTEGDLGQLLPGGSA
For B1, the body weight ([1]; agent alone, vs control group) was “without apparent differences; also recorded: does not show changes”, the plasma creatinine ([1]; agent alone, vs control group) was “does not reflect changes” and the “cisplatin-induced reduction in body weight under joint treatment” value ([1]; cardiotrophin-1 100 μg/kg i.v. 7 days + cisplatin 6 mg/kg i.p., vs cisplatin) was “significantly less”. For the same molecule, the “cisplatin-induced increase in plasma creatinine under joint treatment” value ([1]; cardiotrophin-1 100 μg/kg i.v. 7 days + cisplatin 6 mg/kg, vs cisplatin) was “significantly less”, the “physical condition during coadministration with cisplatin” value ([1]; cardiotrophin-1 + cisplatin) was “spectacular improvement” and the “cisplatin-induced increase in final kidney weight under joint treatment” value ([1]; cardiotrophin-1 + cisplatin, vs cisplatin) was “substantially less”. The “effect on cisplatin-induced kidney injury (conclusion)” value ([1]; rat cardiotrophin-1 100 μg/kg/day i.v. 7 days, cisplatin 6 mg/kg) was “protective effect”, the survival ([1]; throughout the experimental period, vs control group) was “does not modify the survival” and the “urinary flow under joint administration with cisplatin” value ([1]; without significant differences vs control and cardiotrophin-1 groups) was “constant evolution”. For the same molecule, the creatinine clearance [2, 5] was “did not alter”, the “plasma concentration of creatinine” value [2, 5] was “did not alter” and the proteinuria [2, 5] was “did not alter”. For the same molecule, the urea plasma concentration [2, 5] was “did not alter”, the “effect on the RPF decrease produced by Gg+G” value ([2]; co-treatment with CT-1) was “reversal” and the “effect on the RVR increase produced by gentamicin and gastrografin” value ([2]; coadministration of CT-1) was “counteracted the increase”. The “PAI-1 in the urine under Gg+G with CT-1” value ([2]; group Gg+G+CT-1) was “does not appear”, the “effect on the GFR decrease produced by Gg+G” value ([2]; group Gg+G+CT-1) was “reversed” and the “effect on the NAG increase produced by Gg+G” value ([2]; group Gg+G+CT-1) was “reduced this increase”. For the same molecule, the “effect on the decrease in creatinine clearance produced by Gg+G” value [2, 6] was “partially reversed”, the “effect on the increase in plasma concentration of creatinine produced by Gg+G” value [2, 6] was “partially reversed” and the “effect on the increase in plasma urea produced by Gg+G” value [2, 6] was “partially reversed”. For the same molecule, the “effect on the proteinuria produced by Gg+G” value [2, 6] was “partially reversed”, the “KIM-1 in the urine (Western blot)” value ([2]; in comparison with the controls) was “produced no effect” and the “deterioration of renal excretory function and intensity of tubular damage (conclusion)” value ([2]; recombinant human CT-1 i.v. 100 μg/kg/day, contrast nephropathy in animals sensitized with gentamicin) was “reduces”. For the same molecule, the “general condition (appearance, mobility)” value ([2]; throughout the experiment) was “healthy appearance and normal mobility”, the survival ([2]; until the end of the experiment (four days after contrast)) was “all animals survived until the end of the experiment” and the “effect on the increase in KIM-1 expression produced by Gg+G” value ([2]; urine, Western blot, group Gg+G+CT-1) was “considerably decreases the increase”. The “PAI-1 in the urine (Western blot)” value ([2]; vs control group) was “not different from the control group animals”, the “gentamicin-induced symptoms (appearance, mobility, hair) in group G+CT-1” value ([3]; CT-1 100 μg/kg/day i.v. 7 days + gentamicin 150 mg/kg/day i.p. 6 days) was “significantly reduced” and the “effect on the decrease in creatinine clearance produced by G” value ([3]; CT-1 together with G) was “partially reversed”. For the same molecule, the “effect on the increase in plasma creatinine produced by G” value ([3]; CT-1 together with G) was “partially reversed”, the “effect on the increase in plasma urea concentration produced by G” value ([3]; CT-1 together with G) was “partially reversed” and the “effect on the proteinuria produced by G” value ([3]; CT-1 together with G) was “partially reversed”. The urinary flow ([3]; administered separately, vs control group (C)) was “Neither G nor CT-1, administered separately, modified the urinary flow”, the creatinine clearance ([3]; agent alone) was “did not alter” and the “general condition (appearance, mobility)” value ([3]; agent alone) was “healthy appearance and normal mobility”. For the same molecule, the plasma creatinine ([3]; agent alone) was “did not alter”, the proteinuria ([3]; agent alone) was “did not alter” and the urea plasma concentration ([3]; agent alone) was “did not alter”. The “reactive bands to the anti KIM-1 antibody in the urine” value ([3]; agent alone, vs controls) was “does not produce any effect”, the “renal levels of KIM-1 (Western blot)” value ([3]; agent alone, vs controls) was “does not produce any effect” and the “liver weight (with respect to the body weight)” value ([3]; at the time of sacrifice) was “certain hepatomegaly”. For the same molecule, the “spleen weight (with respect to the body weight)” value ([3]; at the time of sacrifice) was “marked splenomegaly”, the “systolic blood pressure (SBP)” value ([3]; basal vs end of treatments (d 6)) was “not observed” and the “extension of gentamicin tubular damage under cotreatment (histology)” value ([3]; cotreatment with CT-1) was “moderately and partially prevents the extension of tubular damage”. The “renal and urinary NGAL (Western blot)” value ([3]; end of treatments) was “induce an increase”, the “effect on the increase in NAG excretion produced by G” value ([3]; especially the submaximal of the first days) was “reduces this increase” and the “effect on the increase in KIM-1 expression in the kidney that G produces” value ([3]; group G+CT-1) was “does not appreciably decrease”. For the same molecule, the “effect on the weight loss produced by G” value ([3]; group G+CT-1) was “partially mitigated”, the “upper band (approx. 90 kDa) of KIM-1 in the urine under G with CT-1” value ([3]; group G+CT-1) was “partially decreases” and the “effect on acute kidney injury produced by gentamicin (conclusion)” value ([3]; recombinant human CT-1 i.v. 100 μg/kg/day, 7 days) was “protective effect”. The survival ([3]; until the end of the experiment) was “all animals survived until the end of the experiment”, the “decrease of plasma levels of IL-6 after ischemia and reperfusion” value ([4]; 4 hours after reperfusion) was “not observed” and the “decrease of plasma levels of IL-10 after ischemia and reperfusion” value ([4]; 4 hours after reperfusion) was “not observed”. The “plasma levels of IFN-γ” value [4, 7] was “blocked the elevation”, the “plasma levels of IL-1β” value [4, 7] was “blocked the elevation” and the “plasma levels of TNF-α” value [4, 7] was “blocked the elevation”. The “obstructed tubules and vacuolated cells (histology)” value ([4]; 24 hours after reperfusion, vs control kidneys) was “less abundant”, the creatinine clearance ([4]; 48 hours after I/R, vs IR C) was “significantly higher” and the plasma creatinine ([4]; 48 hours after I/R, vs IR C, no significant differences vs simulated group) was “markedly lower”. The “denuded tubules and inflammatory infiltration (histology)” value ([4]; 48 hours after reperfusion, vs control kidneys) was “less abundant”, the mortality ([4]; 14 days after the I/R, CT-1 400 μg/kg, untreated ischemic group 40%) was 20% and the “acute kidney injury induced by ischemia/reperfusion (conclusion)” value ([4]; also decrease in kidney function, oxidative stress and inflammation) was “prevents acute kidney injury”. For the same molecule, the “renal levels of superoxide anion (SOA)” value ([4]; four hours after reperfusion, vs ischemic control group, significantly greater than simulated group) was “significantly less”.
